Tested on: Clp-GST (Xanthomonas oryzae pv. oryzae PXO99A)
Experiment: MST
Settings: MST: 50 mM Tris pH 7.5, 150 mM NaCl, 10 mM MgCl2, 0.05% Tween 20, 25 C, buffer not given

xanfur promoter, FAM-labeled
Kd: 0.687 nM
